# ± gives the standard deviation.
# Assay: protein stability index of a GFP-peptide fusion (GPS, HEK-293T) (PSI 1-6); higher = more stable
# [1] = treatment: DMSO, c terminus: a fixed tail appended
# [2] = treatment: MLN4924 1 uM, 8 h, c terminus: a fixed tail appended
# 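Note: 24-mer peptide tiles fused after GFP, lentivirally expressed, FACS-sorted into six equal bins by GFP/DsRed ratio, decoded by Illumina sequencing, PSI is the read-weighted mean bin number.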
Sequence,protein stability index [1],protein stability index [2],"protein stability index (treatment: DMSO, c terminus: native)","protein stability index (treatment: MLN4924 1 uM, 8 h, c terminus: native)"
WYDMFRDAAAILLDEQNKRPCRKF [ZMAT5],2.35 ± 0.22,2.33 ± 0.44,–,–
DVTSGDHGDYFRLLLPGIYTVSAT [CPN1],2.29 ± 0.57,2.02 ± 0.23,–,–
RGLHEDLQGVPERLLGTAGTEEKK [VTI1B],5.38 ± 0.07,5.58 ± 0.26,–,–
GMGLTGTMGMGMPNIAMTSGTVQP [CLINT1],3.84 ± 0.17,3.69 ± 0.13,–,–
NNIKFKKSSILTRAGEQRKRSQSM [CLCN6],4.06 ± 0.41,4.39 ± 0.1,–,–
SAILQFPSTLGRCKAFSTCVSHLI [OR10K2],2.5 ± 0.55,2.59 ± 0.3,–,–
MSHKQIYYSDKYDDEEFEYRHVML [CKS1B],2.52 ± 0.17,2.66 ± 0.18,–,–
ELREACDYLCISFEYSTIKCRDLS [BTBD10],3.06 ± 0.21,3.13 ± 1,–,–
RPRQRQRVYPKCTWLTTPKSTWPR [TCF25],3.17 ± 0.43,3.23 ± 0.2,–,–
RVNKEHEHKLKVVRDQISHCTVKL [TRIM9],3.29 ± 0.31,3.39 ± 0.29,–,–
AQLSELRCEMEAQNQEYKMLLDIK [KRT15],3.65 ± 0.33,3.65 ± 0.38,–,–
QLVLVAAGFDALQGDPKGEMAATP [HDAC6],2.75 ± 0.057,2.8 ± 0.43,–,–
VLRSRIRFIHLVTGCVLGSSGKVL [POMT2],2.62 ± 0.59,2.63 ± 0.76,–,–
IRMIVRGTLGSCSSSSECLEDSTM [PLK2],2.3 ± 0.3,2.25 ± 0.12,–,–
RSVSEPRDQHPQPSLGDSLESIPS [RTN2],5.34 ± 0.41,5.17 ± 0.24,–,–
RHIFMGYLESETETTEAIDDEGWL [ACSBG2],4.08 ± 0.27,4.13 ± 0.16,–,–
NGAGVTVLRREISELRTKVQEQQK [FBXO28],4.11 ± 0.23,4.21 ± 0.13,–,–
GSTLIFYKYCDHENAAFKDVALVL [TOR1AIP2],2.43 ± 0.59,2.58 ± 0.73,–,–
LIKKKKEELEAKRLQCPFEQELLR [FAM107A],3.66 ± 0.12,3.71 ± 0.15,–,–
FFYPLVEDPYMMGRIACANVLSDL [SEPHS2],2.38 ± 0.46,2.19 ± 0.47,–,–
APAMYDDESAIDFSAYIDSMAAVP [CEBPD],4.32 ± 0.27,3.62 ± 0.15,–,–
ELWIYNMETGRWKKINTEGDVPPS [KLHDC2],3.43 ± 0.2,3.61 ± 0.27,–,–
DGKLQLLQKLLSGRSREELDELTG [FEM1A],3.24 ± 0.31,3.29 ± 0.26,–,–

Sequence,protein stability index [1],protein stability index [2],"protein stability index (treatment: DMSO, c terminus: native)","protein stability index (treatment: MLN4924 1 uM, 8 h, c terminus: native)"
NKLQTLSPSHKGIAAPHAGANVKP [ZC2HC1A],4.35 ± 0.16,4.457 ± 0.035,–,–
PFTVYQVRWLRPVHRQLGEANEEF [AUP1],2.43 ± 0.34,2.33 ± 0.32,–,–
EDTSNDESSILGTDIDLQTIDNDI [M1AP],5.56 ± 0.093,5.56 ± 0.18,–,–
QKENVFKCDSLKEECIPEHMVRES [FAN1],4.56 ± 0.38,4.56 ± 0.19,–,–
LGCQGAQFVSSVPRCDLVDLGEGK [FAM189A2],4.31 ± 0.14,4.18 ± 0.13,–,–
LVLLRQMLLELTRRGQEPLSALLQ [BCL2L13],2.37 ± 0.22,2.62 ± 0.48,–,–
SQDALRVVSTSGEQMKVYKCEHCR [IKZF1],4.29 ± 0.33,4.38 ± 0.3,–,–
RFTRTPVDQTGVSGGVASFICQAT [PTPRD],3.12 ± 0.28,3.19 ± 0.37,–,–
LGSQIKSLCNLEESITSAGRDDLE [FAM98B],4.63 ± 0.3,4.74 ± 0.17,–,–
IKEQLIQEGLLDRCVSFQARFAEK [HDAC6],2.81 ± 0.19,2.73 ± 0.36,–,–
ETPGSAVDYPLHDLVLHTNYTATV [TNXB],2.83 ± 0.18,2.87 ± 0.55,–,–
RIADKFTQHNFQEVMESEEFMLLP [KLHL20],3.5 ± 0.35,3.54 ± 0.22,–,–
ADGQESTPPTPAPTSGIVGALMEV [WASL],4.86 ± 0.1,4.56 ± 0.17,–,–
WKIALLFVAFALCMFCLYSFMPLV [SLC35F2],2.19 ± 0.51,2.69 ± 0.46,–,–
TADHRIYSYVVSRPQPRGLLGWGY [FAF2],2.16 ± 0.37,2.21 ± 0.22,–,–
TCPQCHRSLILDDRGLRGFPKNRV [TRIM9],2.74 ± 0.22,3.16 ± 0.41,–,–
EPPKPTFPAYTQSTASTTSTTNST [ZNF207],5.39 ± 0.3,5.04 ± 0.21,–,–
MDVTSRCTLGDPNKLPEGVPQPAR [KLHL20],4.64 ± 0.28,4.72 ± 0.23,–,–
SGESNSAVSTEDLKECLKKQLEFC [LARP4],4.43 ± 0.49,4.64 ± 0.19,–,–
KGSSELGFPRVAPEDEVIVNQYVI [RNF208],2.8 ± 0.44,2.64 ± 0.36,–,–
VKVVLIPVGQEIVIPFKVDTILKY [IQUB],3.98 ± 0.88,2.5 ± 0.79,–,–
YRFFKYIENRDVAKSVLKERGLKK [BTBD10],2.44 ± 0.25,2.52 ± 0.3,–,–
LNYLVDPVTICCGHSFCRPCLCLS [TRIM43],2.26 ± 0.34,2.42 ± 0.23,–,–

Sequence,protein stability index [1],protein stability index [2],"protein stability index (treatment: DMSO, c terminus: native)","protein stability index (treatment: MLN4924 1 uM, 8 h, c terminus: native)"
HFSSIPDAFWWAVVSMTTVGYGDM [KCNA1],3.56 ± 0.34,3.12 ± 0.29,–,–
LQNEVRQLTEKLARVNENLARKIA [SSNA1],2.27 ± 0.29,2.2 ± 0.29,–,–
AEDTEKKDEPSKYNQQQALIDQRY [CEP70],5.2 ± 0.31,5.36 ± 0.059,–,–
QHPDMSVTKVVVHKETEITPEDGE [EPB41L3],5.33 ± 0.23,5.39 ± 0.21,–,–
PAQRSHTYTHGLGLHRRPGAGHCS,3.52 ± 0.12,3.46 ± 0.3,–,–
NNYRLGGNPSTNSRVTASSGITIP [SMARCE1],3.64 ± 0.3,3.54 ± 0.38,–,–
MIHGRSVLHIVASLIILHLSGATK [NETO1],3.03 ± 0.24,3.02 ± 0.54,–,–
ECFMCSDCGLNLKQRGYFFLDERL [PDLIM4],2.26 ± 0.32,2.08 ± 0.34,–,–
FGGQDENKQTLSSGEKYDPDANTW [GAN],5.06 ± 0.074,5.01 ± 0.35,–,–
GSLDNAHHVPGGGNVKIDSQKLNF [MAP2],4.27 ± 0.18,4.43 ± 0.32,–,–
FCIDSENRIGNSGVEEIKGHPFFE [STK38L],2.97 ± 0.58,3.03 ± 0.18,–,–
EFKADAQLLLHNTVIFYGADSEQA [ZMYND11],3.06 ± 0.32,3.32 ± 0.23,–,–
LNRSESDIRYLLGYVSQQGGQRST [FEM1B],3.73 ± 0.19,3.59 ± 0.33,–,–
PVQELPPSLRAPPPGGWPLQPRVQ [ZMAT5],4.02 ± 0.39,4.18 ± 0.25,–,–
GKGFRDRNVTGTPLTGDKDDEEVD [ADAMTSL2],5.59 ± 0.21,5.51 ± 0.34,–,–
RDKAEELLQLPDTKVGSFMIRESE [SLA],4.66 ± 0.37,4 ± 0.79,–,–
RGTHLWEFIRDILIHPELNEGLMK [ELF3],2.54 ± 0.59,2.31 ± 0.42,–,–
KISGGPRISYPLLHEWALREGEE [MAGEA6],–,–,2.68 ± 0.52,3.02 ± 0.65
TNFVVQVSVFIGVLIDLWKITKVM [CLPTM1],3.1 ± 0.67,3.39 ± 0.72,–,–
EHPNVVRLMDVCATSRTDREIKVT [CDK4],3.93 ± 0.36,4.14 ± 0.38,–,–
PTAATTQNPVLSKLLMADQDSPLD [LCOR],4.9 ± 0.17,4.87 ± 0.19,–,–
QSLPCTERKPAATARLSRRGTSLS [KISS1],4.71 ± 0.2,4.66 ± 0.32,–,–
GEKPFTCHECGKKFSQNSHLIKHR [ZNF75A],3.44 ± 0.35,3.9 ± 0.56,–,–

Sequence,protein stability index [1],protein stability index [2],"protein stability index (treatment: DMSO, c terminus: native)","protein stability index (treatment: MLN4924 1 uM, 8 h, c terminus: native)"
IFAWNKWIDIKQFVWYTPPTFMIA [STEAP1],2.97 ± 1.2,2.95 ± 0.64,–,–
HWNGRHKPWDFPSVHNDLWESWFV [GLT8D2],2.28 ± 0.58,2.54 ± 0.52,–,–
RRKACQACRFTKCLRVGMLKEGVR [ESRRA],2.23 ± 0.25,2.3 ± 0.51,–,–
LVVQIDNAKLAADDFRTKYQTEQS [KRT33B],3.18 ± 0.19,3.36 ± 0.16,–,–
GSNGYILNKPALQAQPLRTTSTLA [EHMT1],3.59 ± 0.36,3.44 ± 0.17,–,–
VVHVSFPEVTSALLESLNQQRLQG [ZBTB22],2.27 ± 0.28,2.41 ± 0.21,–,–
GLFAVGEHTGEVRTARALLDRDAL [PCDHGA10],3.84 ± 0.57,3.81 ± 0.29,–,–
EATQFLKQILDGVHYLHSKRIAHF [DAPK3],2.9 ± 0.44,2.92 ± 0.56,–,–
RVQPVKDTAHDFRAKCRNMEHALR [TRIM35],2.96 ± 0.44,3.25 ± 0.36,–,–
AYVSPEILNTTGTYSGKAADVWSL [TRIB1],2.51 ± 0.3,2.37 ± 0.52,–,–
PSGTPTNLRRHVPDLESGSESGAD [DLC1],5.47 ± 0.33,5.46 ± 0.1,–,–
ERPAQRDCSFPGLPRHQDQPHHQP [TRAF3IP2],4.72 ± 0.15,4.64 ± 0.28,–,–
QPPPQEEPGTPSSSPDDKLLTSPR [KLHL14],5.52 ± 0.16,5.48 ± 0.15,–,–
DPGLGEGPALWLRSTCVYVCALSA [PLEKHN1],2.55 ± 0.045,2.09 ± 0.38,–,–
PAMGLQKKLRLNGGRNPYEGRVEV [LOXL2],–,4.08 ± 0.88,–,–
ALGTSWTLPLQDRELGPEELDELQ [CABP4],5.4 ± 0.097,5.23 ± 0.16,–,–
IDYKTTTILLDGRRVRLELWDTSG [RAB40C],2.25 ± 0.61,2.21 ± 0.26,–,–
VQTSVIGSNGYILNKPALQAQPLR [EHMT1],3.06 ± 0.34,3.17 ± 0.13,–,–
KSNVLKLKTADWRVFLFQAPSKEE [PSD2],2.33 ± 0.077,2.44 ± 0.28,–,–
PDSVPSLQNMGLLLDKLAKENQDI [PBXIP1],4.48 ± 0.18,4.42 ± 0.15,–,–
